Target: T1, GDF8 growth factor dimer (human, UniProt O14793 267-375, disulfide-linked dimer)
T1 sequence (looked up): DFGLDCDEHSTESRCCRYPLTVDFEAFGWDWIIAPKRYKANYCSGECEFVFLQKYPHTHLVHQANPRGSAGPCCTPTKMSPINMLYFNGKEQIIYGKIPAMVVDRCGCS
Experiment: HDX-MS

binding result: binds
B1: N-prodomain fragment of GDF8 (N-terminal 15 kDa TLD-cleaved prodomain fragment) (domain or fragment, human, UniProt O14793 24-98, looked up)
chain: NENSEQKENVEKEGLCNACTWRQNTKSSRIEAIKIQILSKLRLETAPNISKDVIRQLLPKAPPLRELIDQYDVQR
modifications: predicted N-linked glycan attachment site (printed as Asn-71 in the text, Asn48 in Figure 1A)
